Among the data in patent publication US20240034757A1 (OXFORD UNIVERSITY INNOVATION, published 2024) are binding result and Kd values, retold here.

Experiment in all cases: BLI
A general note: Biolayer interferometry detects binding as a change in optical thickness at a sensor tip.

Experiment [1] addresses T1, CCL16_HUMAN (human, UniProt O15467 24-120).
T1 sequence: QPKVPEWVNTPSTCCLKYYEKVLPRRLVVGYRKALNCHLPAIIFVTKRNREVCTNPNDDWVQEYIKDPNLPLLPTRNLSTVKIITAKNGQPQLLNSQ

Experiment [2] concerns the target T2, CCL24_HUMAN (human, UniProt O00175 27-104).
T2 sequence: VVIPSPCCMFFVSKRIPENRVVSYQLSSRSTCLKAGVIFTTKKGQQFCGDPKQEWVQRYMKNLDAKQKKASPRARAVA

Experiment [3] has as its target T3, CCL23_HUMAN (human, UniProt P55773 22-120).
T3 sequence: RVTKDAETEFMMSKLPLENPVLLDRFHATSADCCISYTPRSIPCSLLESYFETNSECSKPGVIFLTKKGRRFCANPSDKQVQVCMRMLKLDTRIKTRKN

Experiment [4] addresses T4, CCL21_HUMAN (human, UniProt O00585 24-134).
T4 sequence: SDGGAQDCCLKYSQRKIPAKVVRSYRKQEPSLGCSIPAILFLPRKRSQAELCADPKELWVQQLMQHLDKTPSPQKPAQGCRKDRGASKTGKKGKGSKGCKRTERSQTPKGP

The target in experiment [5] is CCL7_HUMAN (human, UniProt P80098 24-99).
Sequence of CCL7_HUMAN (P80098 24-99 limits assumed): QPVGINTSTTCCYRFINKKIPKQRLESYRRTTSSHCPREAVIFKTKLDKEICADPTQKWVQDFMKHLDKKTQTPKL
For experiment [6], the target named is T5, CCL5_HUMAN (human, UniProt P13501 24-91).
T5 sequence: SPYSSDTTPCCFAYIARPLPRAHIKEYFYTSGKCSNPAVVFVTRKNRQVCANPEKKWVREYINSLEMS

In experiment [7] the target is CCL2_HUMAN (human, UniProt P13500 24-99).
Sequence of CCL2_HUMAN (P13500 24-99 limits assumed): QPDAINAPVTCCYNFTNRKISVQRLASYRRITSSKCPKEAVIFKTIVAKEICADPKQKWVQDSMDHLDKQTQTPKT
The target of experiment [8] is T6, CCL18_HUMAN (human, UniProt P55774 21-89).
T6 sequence: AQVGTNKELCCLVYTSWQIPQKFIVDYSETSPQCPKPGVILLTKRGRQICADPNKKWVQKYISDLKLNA

One may read the Kd as the concentration at which binding is half-saturated. Read a low Kd as a tighter complex.
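Also: biolayer interferometry binding readings, curves fitting with R² below 0.9 dropped, every experiment run at least three times.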

B1: P1243:G4S:P1156 (designed binder)
chain: RNHTEDNSTEYYDYEEARCACPARHLNNTNGTVLKLLGCHYFCNGTLCTAPDGYPCYNLTAQQVRTLTTYPNTSCAVGVCMKGTCVKNGTMEQCFKTPGGGGSADDDNELFTVQYCGMNCTKDEGGTWTGCTGKKEGCKCYHESGKNYGLCLSTEYTDFSQYGNPSDSEIEAAKPKRSDTLSH
With B1, the binding result in experiment [1] and in experiment [7] was “no binding (tested: 300 nM)” each time. Further, the equilibrium dissociation constant (Kd) in experiment [2] stood at 16.4 nM; in experiment [3] it was 0.632 nM; in experiment [4], 53.8 nM; in experiment [5], 49 nM; in experiment [6] it was 8.95 nM; in experiment [8] it was 0.543 nM.
